Measurements taken from PMC11328874 (2024).

B1: HA-tagged B55α (HA-B55α), wild type [human] / FLAG-Eya3 (human), wild type [human] (parent complex)
chain 1: MAGAGGGNDIQWCFSQVKGAVDDDVAEADIISTVEFNHSGELLATGDKGGRVVIFQQEQENKIQSHSRGEYNVYSTFQSHEPEFDYLKSLEIEEKINKIRWLPQKNAAQFLLSTNDKTIKLWKISERDKRPEGYNLKEEDGRYRDPTTVTTLRVPVFRPMDLMVEASPRRIFANAHTYHINSISINSDYETYLSADDLRINLWHLEITDRSFNIVDIKPANMEELTEVITAAEFHPNSCNTFVYSSSKGTIRLCDMRASALCDRHSKLFEEPEDPSNRSFFSEIISSISDVKFSHSGRYMMTRDYLSVKIWDLNMENRPVETYQVHEYLRSKLCSLYENDCIFDKFECCWNGSDSVVMTGSYNNFFRMFDRNTKRDITLEASRENNKPRTVLKPRKVCASGKRKKDEISVDSLDFNKKILHTAWHPKENIIAVATTNNLYIFQDKVN
chain 2: MEEEQDLPEQPVKKAKMQESGEQTISQVSNPDVSDQKPETSSLASNLPMSEEIMTCTDYIPRSSNDYTSQMYSAKPYAHILSVPVSETAYPGQTQYQTLQQTQPYAVYPQATQTYGLPPFGALWPGMKPESGLIQTPSPSQHSVLTCTTGLTTSQPSPAHYSYPIQASSTNASLISTSSTIANIPAAAVASISNQDYPTYTILGQNQYQACYPSSSFGVTGQTNSDAESTTLAATTYQSEKPSVMAPAPAAQRLSSGDPSTSPSLSQTTPSKDTDDQSRKNMTSKNRGKRKADATSSQDSELERVFLWDLDETIIIFHSLLTGSYAQKYGKDPTVVIGSGLTMEEMIFEVADTHLFFNDLEECDQVHVEDVASDDNGQDLSNYSFSTDGFSGSGGSGSHGSSVGVQGGVDWMRKLAFRYRKVREIYDKHKSNVGGLLSPQRKEALQRLRAEIEVLTDSWLGTALKSLLLIQSRKNCVNVLITTTQLVPALAKVLLYGLGEIFPIENIYSATKIGKESCFERIVSRFGKKVTYVVIGDGRDEEIAAKQHNMPFWRITNHGDLVSLHQALELDFL

Variants of: B1
Experiment: FLAG co-IP followed by Western blot, band quantification; cotransfected HEK cells; three biological replicates; parent: 1; read off a plot

| ratio to parent | Variant |
| --- | --- |
| ~0.36 | chain 1 K345E |
| ~0.28 | chain 1 Y178A, chain 1 H179A |
| ~1.1 | chain 1 K48E |

Continued, variant first:

| Variant | ratio to parent |
| --- | --- |
| chain 1 E27R | ~1.2 |
| chain 1 E93A, chain 1 E94A, chain 1 K95A | ~0.4 |
| chain 1 D197K | ~0.58 |
